The values that follow come from paper PMC7293020.

In series [1] the target is EcSSB and the SSB-IDL fusions. The series can be described thus: ITC.
The next series deals with EcSSB (Escherichia coli, UniProt P0AGE0 1-178). The series can be described thus: MST.
EcSSB, sequence (P0AGE0 whole entry): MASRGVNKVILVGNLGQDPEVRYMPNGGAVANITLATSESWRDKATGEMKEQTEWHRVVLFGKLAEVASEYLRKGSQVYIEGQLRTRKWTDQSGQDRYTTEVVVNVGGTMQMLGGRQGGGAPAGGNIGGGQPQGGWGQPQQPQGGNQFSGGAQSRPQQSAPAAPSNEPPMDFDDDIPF

B1: Escherichia coli exonuclease I (ExoI) (enzyme)
chain: MMNDGKQQSTFLFHDYETFGTHPALDRPAQFAAIRTDSEFNVIGEPEVFYCKPADDYLPQPGAVLITGITPQEARAKGENEAAFAARIHSLFTVPKTCILGYNNVRFDDEVTRNIFYRNFYDPYAWSWQHDNSRWDLLDVMRACYALRPEGINWPENDDGLPSFRLEHLTKANGIEHSNAHDAMADVYATIAMAKLVKTRQPRLFDYLFTHRNKHKLMALIDVPQMKPLVHVSGMFGAWRGNTSWVAPLAWHPENRNAVIMVDLAGDISPLLELDSDTLRERLYTAKTDLGDNAAVPVKLVHINKCPVLAQANTLRPEDADRLGINRQHCLDNLKILRENPQVREKVVAIFAEAEPFTPSDNVDAQLYNGFFSDADRAAMKIVLETEPRNLPALDITFVDKRIEKLLFNYRARNFPGTLDYAEQQRWLEHRRQVFTPEFLQGYADELQMLVQQYADDKEKVALLKALWQYAEEIV
With B1, the dissociation constant (Kd) – broadly, the constant that tells how readily two partners part at equilibrium – in series [1] was in the range of 4460 to 5780 nM.
In the series with EcSSB, TTTTTTTTTTTTTTTTTTTTTTTTTTTTTTTTTTT (ssDNA) [Cy5-dT35] showed a Kd of 1.23 ± 0.29 nM.
